Measurements reported in patent publication US20260103536A1.

Target: CD38 on cells (Raji, Daudi, REH, CD38-transfected HEK293) (human) (UniProt P28907)
Assay: flow cytometry on Raji cells; top asymptote fixed at about the maximum response of Darzalex

Adjusted* EC50: 1.27 nM
Substance: Darzalex® (CD38 control) (antibody)
